# B1: Sybody Sb#15 (VHH)
# VHH: QVQLVESGGGLVQAGGSLRLSCAASGFPVKNFEMEWYRKAPGKEREWVAAIQSGGVETYYADSVKGRFTISRDNAKNTVYLQMNSLKPEDTAVYYCFVYVGRSYIGQGTQVTVS
# notes: also called Sb#y15; source: E. coli MC1061, periplasm, purified (Ni-NTA, SEC)
# Target: SARS-CoV-2 spike receptor-binding domain fused to Venus YFP (RBD-vYFP) (SARS-CoV-2, UniProt P0DTC2 330-526, chemically biotinylated using NHS-Biotin)
# Test: grating-coupled interferometry (GCI)
# Conditions: both partners purified
binder,measurement,value
B1,Kd,14.4 nM

# — article PMC8982573 (EMBO Reports, 2022)
